Substrate in data set [1]: O=[N+]([O-])c1ccc(OC2O[C@H](CO)[C@@H](O[C@H]3O[C@H](CO)[C@@H](O[C@H]4O[C@H](CO)[C@@H](O[C@H]5O[C@H](CO)[C@@H](O[C@H]6O[C@H](CO)[C@@H](O)[C@H](O)[C@H]6O)[C@H](O)[C@H]5O)[C@H](O)[C@H]4O)[C@H](O)[C@H]3O)[C@H](O)[C@H]2O)cc1
Nature of the data set: Enzymatic activity with 4NP-DP5 as substrate, Michaelis-Menten kinetics (WT). The class given is biochemical, Bacillus licheniformis. The settings on record: other: substrate 4NP-DP5 0-1 mM, 35° C., 50 mM MOPS, 50 mM NaCl, 2 mM CaCl2, pH 7.15, WT α-amylase. As to the method:
(§1) The enzymatic activity of B. licheniformis α-amylase WT and mutants was measured using 4-nitrophenyl-maltopentaoside (4NP-DP5) as a substrate, 4 nitrophenol and maltopentaose are formed, this reaction can be followed by measuring the change in OD 405 The assay was performed at 35° C. in 50 mM MOPS, 50 mM NaCl, 2 mM CaCl2 (PH 7.15) and 0-1 mM 4NP-DP5.
(§2) Initial rates were measured and E-nitrophenol was taken as 10,000 l/M/cm.

Substrate in data set [2]: O=[N+]([O-])c1ccc(OC2O[C@H](CO)[C@@H](O[C@H]3O[C@H](CO)[C@@H](O[C@H]4O[C@H](CO)[C@@H](O[C@H]5O[C@H](CO)[C@@H](O[C@H]6O[C@H](CO)[C@@H](O)[C@H](O)[C@H]6O)[C@H](O)[C@H]5O)[C@H](O)[C@H]4O)[C@H](O)[C@H]3O)[C@H](O)[C@H]2O)cc1
Kind of data set: Enzymatic activity with 4NP-DP5 as substrate, Michaelis-Menten kinetics (mutant 2D5). The class given is biochemical, Bacillus licheniformis. Conditions: other: substrate 4NP-DP5 0-1 mM, 35° C., 50 mM MOPS, 50 mM NaCl, 2 mM CaCl2, pH 7.15, 2D5 α-amylase. The procedure: 2D5 contained the D7 mutation and in addition threonine 149 was replaced by isoleucine (2D5=H133Y, T149I).
as §1, §2

B1: Bacillus licheniformis α-amylase, WT (wild type, B. licheniformis T5; SEQ ID NO: 3) (Bacillus licheniformis) (protein)
chain: ANLNGTLMQYFEWYMPNDGQHWKRLQNDSAYLAEHGITAVWIPPAYKGTSQADVGYGAYDLYDLGEFHQKGTVRTKYGTKGELQSAIKSLHSRDINVYGDVVINHKGGADATEDVTAVEVDPADRNRVISGEHRIKAWTHFHFPGRGSTYSDFKWHWYHFDGTDWDESRKLNRIYKFQGKAWDWEVSNENGNYDYLMYADIDYDHPDVAAEIKRWGTWYANELQLDGFRLDAVKHIKFSFLRDWVNHVREKTGKEMFTVAEYWQNDLGALENYLNKTNFNHSVFDVPLHYQFHAASTQGGGYDMRKLLNSTVVSKHPLKAVTFVDNHDTQPGQSLESTVQTWFKPLAYAFILTRESGYPQVFYGDMYGTKGDSQREIPALKHKIEPILKARKQYAYGAQHDYFDHHDIVGWTREGDSSVANSGLAALITDGPGGAKRMYVGRQNAGETWHDITGNRSEPVVINSEGWGEFHVNGGSVSIYVQR
notes: made in house; host or cells: E. coli WK6
The Km is the substrate concentration at which the rate is half of its maximum. As a reminder, the Vmax is the rate approached at saturating substrate. As to B1, in data set [1], the Km was determined as 112 µM and the Vmax is 66.7 ± 0.9 µmol/min/mg.

B2: Bacillus licheniformis α-amylase mutant 2D5 (H133Y, T149I) (Bacillus licheniformis; H162Y/T178I) (protein)
chain: ANLNGTLMQYFEWYMPNDGQHWKRLQNDSAYLAEHGITAVWIPPAYKGTSQADVGYGAYDLYDLGEFHQKGTVRTKYGTKGELQSAIKSLHSRDINVYGDVVINHKGGADATEDVTAVEVDPADRNRVISGEYRIKAWTHFHFPGRGSIYSDFKWHWYHFDGTDWDESRKLNRIYKFQGKAWDWEVSNENGNYDYLMYADIDYDHPDVAAEIKRWGTWYANELQLDGFRLDAVKHIKFSFLRDWVNHVREKTGKEMFTVAEYWQNDLGALENYLNKTNFNHSVFDVPLHYQFHAASTQGGGYDMRKLLNSTVVSKHPLKAVTFVDNHDTQPGQSLESTVQTWFKPLAYAFILTRESGYPQVFYGDMYGTKGDSQREIPALKHKIEPILKARKQYAYGAQHDYFDHHDIVGWTREGDSSVANSGLAALITDGPGGAKRMYVGRQNAGETWHDITGNRSEPVVINSEGWGEFHVNGGSVSIYVQR
notes: as for B1
With B2, in data set [2], the Km turned out to be 119 µM and the Vmax came to 66.3 ± 0.7 µmol/min/mg.
